The stoichiometry N is a count of units in the complex or per binding partner. As usually defined, the Kd is the constant that tells how readily two partners part at equilibrium. Higher therefore signals weaker binding. One may read the koff as the rate constant with which the complex falls apart. The kon is the second-order rate constant of association. Read a high kon as fast association.

This is an account of results in article PMC10635575.

Series [1] has as its target CZA97.012 SOSIP.664 trimer (HIV-1, Clade C, clone CZA97.012 (97ZA.012)). In words: SPR. (In general: In SPR one partner is held on a chip, and binding of the other changes the refractive index at the surface.)
The target of series [2] is CZA97.012 SOSIP.664 trimer, His-tagged, 2G12-affinity- and then SEC-purified (HIV-1 (Clade C, clone CZA97.012)). The series can be described thus: SPR.
Series [3] addresses CZA97.012 SOSIP.664 trimer (HIV-1, Clade C, clone CZA97.012 (97ZA.012)).
For series [4] the following is noted: N-glycosylation at N411.
In series [5] the target is CZA97.012 SOSIP.664 trimer (HIV-1, Clade C, clone CZA97.012 (97ZA.012)). The series can be described thus: negative-stain electron microscopy; trimer purified by 2G12-, PGT145- or PGT151-affinity chromatography and then SEC, ~0.02 mg/mL, 2% uranyl formate, 2D class averages.
Series [6] shares this target. In words: cryo-EM structure.
Series [7] shares this target. The source holds these as a separate data set.

The molecule 3BNC117 Fab yielded a stoichiometry N in series [1] of 2.8. In series [2], this molecule showed a Kd of 15 nM, a koff of 0.00014 s⁻¹, a kon of 9700 M⁻¹ s⁻¹ and a stoichiometry N of 2.7. Besides, the IC50 of neutralization of CZA97.012 pseudovirus (Env on virions) by 3BNC117 IgG, TZM-bl assay in series [3] is 0.32 µg/mL.

As for “CZA97.012 Env, D411N mutant: D411N (PNGS knock-in) vs parental; neutralization by autologous rabbit sera 2082 and 2084”, the other entry in series [4] is “decreases”.

“CZA97.012 Env, D411N mutant: D411N (PNGS knock-in) vs parental; neutralization by autologous rabbit serum 2086”: the other result in series [4] is reported as “decreases”.

With “CZA97.012 Env, D411N mutant: D411N (PNGS knock-in) vs parental; neutralization by bNAbs”, the other result in series [4] is “no change”.

For CZA97.012 SOSIP.664 trimer (complex), the stoichiometry N in series [5] and in series [6] was 3 in each case.

B1: PGT145 (antibody, V domains shown)
VH: QVQLVQSGAEVKKPGSSVKVSCKASGNSFSNHDVHWVRQATGQGLEWMGWMSHEGDKTGLAQKFQGRVTITRDSGASTVYMELRGLTADDTAIYYCLTGSKHRLRDYFLYNEYGPNYEEWGDYLATLDVWGHGTAVTVSS
VL: EVVITQSPLFLPVTPGEAASLSCKCSHSLQHSTGANYLAWYLQRPGQTPRLLIHLATHRASGVPDRFSGSGSGTDFTLKISRVESDDVGTYYCMQGLHSPWTFGQGTKVEIK
For the molecule B1, in series [7], the IC50 of neutralization of CZA97.012 pseudovirus (Env on virions) by PGT145 IgG, TZM-bl assay was 7.6 µg/mL.
